From article PMC12075841

How the values were obtained:
[1] = NONO immunostaining, paraspeckle count per nucleus; conditions: glycan lost; control: NONO WT in NONO-KO HCT116
[2] = NONO immunostaining, speckle count, HCT116; conditions: glycan gained; control: 5.5 mM glucose, no OGT

| Protein | localisation_or_trafficking [1] | localisation_or_trafficking [2] |
| --- | --- | --- |
| NONO (Non-POU domain-containing octamer-binding protein): T440A (protein) parent chain: MQSNKTFNLEKQNHTPRKHHQHHHQQQHHQQQQQQPPPPPIPANGQQASSQNEGLTIDLKNFRKPGEKTFTQRSRLFVGNLPPDITEEEMRKLFEKYGKAGEVFIHKDKGFGFIRLETRTLAEIAKVELDNMPLRGKQLRVRFACHSASLTVRNLPQYVSNELLEEAFSVFGQVERAVVIVDDRGRPSGKGIVEFSGKPAARKALDRCSEGSFLLTTFPRPVTVEPMDQLDDEEGLPEKLVIKNQQFHKEREQPPRFAQPGSFEYEYAMRWKALIEMEKQQQDQVDRNIKEAREKLEMEMEAARHEHQVMLMRQDLMRRQEELRRMEELHNQEVQKRKQLELRQEEERRRREEEMRRQQEEMMRRQQEGFKGTFPDAREQEIRMGQMAMGGAMGINNRGAMPPAPVPAGTPAPPGPATMMPDGTLGLTPPTTERFGQAATMEGIGAIGGTPPAFNRAAPGAEFAPNKRRRY | decreases | – |
| NONO (Non-POU domain-containing octamer-binding protein): myc-tagged OGT overexpression (protein) parent chain: MQSNKTFNLEKQNHTPRKHHQHHHQQQHHQQQQQQPPPPPIPANGQQASSQNEGLTIDLKNFRKPGEKTFTQRSRLFVGNLPPDITEEEMRKLFEKYGKAGEVFIHKDKGFGFIRLETRTLAEIAKVELDNMPLRGKQLRVRFACHSASLTVRNLPQYVSNELLEEAFSVFGQVERAVVIVDDRGRPSGKGIVEFSGKPAARKALDRCSEGSFLLTTFPRPVTVEPMDQLDDEEGLPEKLVIKNQQFHKEREQPPRFAQPGSFEYEYAMRWKALIEMEKQQQDQVDRNIKEAREKLEMEMEAARHEHQVMLMRQDLMRRQEELRRMEELHNQEVQKRKQLELRQEEERRRREEEMRRQQEEMMRRQQEGFKGTFPDAREQEIRMGQMAMGGAMGINNRGAMPPAPVPAGTPAPPGPATMMPDGTLGLTPPTTERFGQAATMEGIGAIGGTPPAFNRAAPGAEFAPNKRRRY | – | increases |
